Results as given in publication PMC8210318.

Legend:
[1] = target: T1, RPA heterotrimer (UniProt P27694+P15927+P35244); assay: fluorescence anisotropy; conditions: EMSA: 10 mM Tris pH 7.5, 50 ug/ml BSA, 5% glycerol, 25 mM DTT, 37 C 10 min, 25 nM DNA, 5% TBE gel, anisotropy: same buffer, 30 C
[2] = target: T1, RPA heterotrimer; assay: EMSA; conditions: 25 nM DNA, EMSA: 10 mM Tris pH 7.5, 50 ug/ml BSA, 5% glycerol, 25 mM DTT, 37 C 10 min, 5% TBE gel

T1 sequence (P27694 whole entry, chain 1 of 3): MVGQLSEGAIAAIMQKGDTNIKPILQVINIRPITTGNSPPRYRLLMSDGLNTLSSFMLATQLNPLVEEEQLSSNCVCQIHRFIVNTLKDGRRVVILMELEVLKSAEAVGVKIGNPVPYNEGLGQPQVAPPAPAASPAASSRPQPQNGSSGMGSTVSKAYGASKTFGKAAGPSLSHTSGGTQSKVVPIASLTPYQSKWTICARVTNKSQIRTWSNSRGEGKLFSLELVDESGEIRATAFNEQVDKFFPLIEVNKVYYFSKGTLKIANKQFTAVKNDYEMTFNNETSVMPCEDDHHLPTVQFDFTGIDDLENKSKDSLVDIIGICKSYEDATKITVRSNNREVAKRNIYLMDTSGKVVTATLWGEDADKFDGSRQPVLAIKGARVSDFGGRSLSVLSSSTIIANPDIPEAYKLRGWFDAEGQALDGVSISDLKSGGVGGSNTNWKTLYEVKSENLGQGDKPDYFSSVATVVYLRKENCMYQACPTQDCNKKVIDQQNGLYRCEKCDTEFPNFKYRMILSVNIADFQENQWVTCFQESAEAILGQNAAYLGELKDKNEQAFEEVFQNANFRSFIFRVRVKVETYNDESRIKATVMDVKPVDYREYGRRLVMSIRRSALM
T1 sequence (P15927 whole entry, chain 2 of 3): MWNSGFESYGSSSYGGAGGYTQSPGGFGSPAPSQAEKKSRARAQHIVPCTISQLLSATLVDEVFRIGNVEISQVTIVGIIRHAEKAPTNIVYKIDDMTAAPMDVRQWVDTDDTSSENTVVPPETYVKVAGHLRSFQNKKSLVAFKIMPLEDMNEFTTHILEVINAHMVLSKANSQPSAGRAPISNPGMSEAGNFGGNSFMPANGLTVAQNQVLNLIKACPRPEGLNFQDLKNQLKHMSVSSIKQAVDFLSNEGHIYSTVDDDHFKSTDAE
T1 sequence (P35244 whole entry, chain 3 of 3): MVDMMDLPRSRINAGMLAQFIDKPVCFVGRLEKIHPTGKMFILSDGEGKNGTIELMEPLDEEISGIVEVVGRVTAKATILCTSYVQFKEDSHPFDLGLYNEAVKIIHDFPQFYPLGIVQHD

| Sequence | Kd ([1]; with 500 nM BSA as control) | Kd ([1]; with 500 nM N-HelQ, which displaces RPA) | binding signal ([2]; 12.5 nM RPA, anisotropy: same buffer, 30 C) | binding signal (% of bound DNA released) ([2]; N-HelQ titrated (up to 500 nM), anisotropy: same buffer …) |
| --- | --- | --- | --- | --- |
| GTCGGATCCTCTAGACAGCATCCATGATCACTGGCACTGGTAGAATTCGGC / CAACGTCATAGACGATTACATTGCTACATGGATGCTGTCTAGAGGATCCGA [fork-2 fluorescein] | 45.2 nM | 237 nM |  |  |
| GTCGGATCCTCTAGACAGCATCCATGATCACTGGCACTGGTAGAATTCGGC / CAACGTCATAGACGATTACATTGCTACATGGATGCTGTCTAGAGGATCCGA [fork-2] |  |  | 100 % bound | 40 |
